# Several values for one entry are separate records, joined by “and”; a condition that tells them apart may be missing. Equal entries are not always repeated.
# Target: recombinant soluble NDV HN ectodomain with GCN4IL dimerization domain (HN-GCN4IL) (not stated | Newcastle disease virus)
# Assay: SEC; Superdex 200 Increase 10/300 GL column, freshly purified NDV HN proteins
substance,measurement,value
recombinant soluble NDV HN ectodomain with GCN4IL dimerization domain (HN-GCN4IL),stoichiometry N,2 and 4

# Reference: paper PMC11302929
